# Experimental data reported in patent US9045559B2, “Method for screening inhibitors of interleukin-32 (IL-32)” (Yeda Research and Development Co. Ltd, priority 2005, dated 2015).
# “Also recorded” adds a separate entry of the source. No end group written: not given here.
# How the values were obtained:
# PR-3 [1] = target: T1, PR-3 (Homo sapiens, UniProt P24158); conditions: cited from earlier work; for kI for PR-3: Kam, 1992
# T1 sequence (P24158 28-248): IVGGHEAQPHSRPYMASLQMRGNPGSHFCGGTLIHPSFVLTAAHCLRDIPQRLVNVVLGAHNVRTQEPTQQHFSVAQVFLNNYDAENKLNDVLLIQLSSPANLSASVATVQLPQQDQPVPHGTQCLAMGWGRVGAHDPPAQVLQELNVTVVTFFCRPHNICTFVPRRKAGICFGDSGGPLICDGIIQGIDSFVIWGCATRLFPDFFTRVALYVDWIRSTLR
# PR-3 [2] = target: T2, PR-3 (Homo sapiens, UniProt P24158); assay: Inhibition of the proteolytic activity of PR-3 by PMSF (cleavage of 125I-IL-32); assay type: biochemical; conditions: PR-3 pre-incubated with PMSF 1 mM, 10 min at 37° C.; then 1 and 5 min with 125I-IL-32
# T2 construct: tissue Athens Research and Technology
# T2 sequence (P24158 28-248 limits assumed): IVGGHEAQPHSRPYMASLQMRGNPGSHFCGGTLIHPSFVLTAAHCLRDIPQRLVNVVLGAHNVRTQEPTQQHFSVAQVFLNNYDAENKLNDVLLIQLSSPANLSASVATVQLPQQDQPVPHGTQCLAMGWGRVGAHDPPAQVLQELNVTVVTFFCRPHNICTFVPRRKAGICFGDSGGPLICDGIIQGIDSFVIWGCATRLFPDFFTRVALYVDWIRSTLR
# Description: Lanes 1-4 show ^125I-IL-32 following incubation with urinary PR-3 for 1 and 5 min., either not treated (Lanes 1 and 2) or pre-treated with PMSF (Lanes 3 and 4). Lanes 7-10 show ^125I-IL-32 following incubation with commercial PR-3 for 1 and 5 min., either not treated (Lanes 9 and 10) or pre-treated with PMSF (Lanes 7 and 8). Molecular weight markers (in kDa; lane 5) are indicated at the right side.
# The experiment presented in FIG. 6 was performed as described in examples 5 and 6, except that PR-3 was pre-incubated with PMSF (final concentration of 1 mM, 10 min at 37° C.) prior to the incubation with ^125I-IL-32.
# IL-32 responsive cells = assay: Biological activity of IL-32 and its proteolytic fragments (summary statement referring to Example 8); assay type: cell-based; conditions: for biological activity compared to the intact IL-32 protein: fragments generated by PR-3 cleavage
# Source text: The cleavage of IL-32 and the consequent enhancement of the biological activity were both blocked by the action of PMSF.
# For the purpose of the present description the expression “biological activity of IL-32” refers inter alia to at least one of the following biological properties:
# (i) induction of MIP-2, (ii) induction of TNF, and (iii) induction of IL-8.
# ^125I-IL-32 = target: T3, ^125I-IL-32 (Homo sapiens, UniProt P24001); assay: Kinetics of degradation of 125I-IL-32 by urinary and commercial PR-3 (SDS-PAGE, autoradiography); assay type: biochemical
# T3 construct: made in house; host or cells: E. coli (IL-32α)
# T3 sequence (P24001 1-131 isoform P24001-4): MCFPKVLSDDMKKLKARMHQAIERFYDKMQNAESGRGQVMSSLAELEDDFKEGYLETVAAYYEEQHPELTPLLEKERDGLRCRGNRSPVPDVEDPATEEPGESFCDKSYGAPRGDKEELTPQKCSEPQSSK
# T3 sequence (P24158 28-248 partner limits assumed): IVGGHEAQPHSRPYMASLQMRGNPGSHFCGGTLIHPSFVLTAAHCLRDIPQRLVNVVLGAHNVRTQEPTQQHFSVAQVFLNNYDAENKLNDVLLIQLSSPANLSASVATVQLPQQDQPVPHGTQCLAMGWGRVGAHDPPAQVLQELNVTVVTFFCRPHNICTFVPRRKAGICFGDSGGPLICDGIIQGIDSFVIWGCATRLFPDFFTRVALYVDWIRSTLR
# Description: After 1 minute of incubation with PR-3 the 20 kDa IL-32 (Lane 1) was cleaved into two cleavage products of 16 and 13 kDa (Lane 2). After 5 min. (Lane 3) the band corresponding to the intact IL-32 disappeared and the cleavage products remained stable for at least 60 min. (lanes 3, 4, 6, and 7). The resulting ^125I-IL-32 fragments of apparent MW of 20 kDa, 16 kDa and 13 kDa are indicated on the left side of the FIG.
# The experiment was carried out essentially as indicated in FIG. 4 (Example 5) except, that incubation of PR-3 and IL32 was limited to up to 5 minutes and that both urinary and commercial PR-3 were used. Urinary (Lines 1-3) or commercial PR-3 (Lines 5-7) were incubated with ^125I-IL-32 for 0, 1 and 5 minutes.
# Affinity purified urinary PR-3 (elution 3 fraction from Example 1, FIG. 1, 50 μl) was added to ^125I-IL-32 (250,000 cpm in 10 μl of gelatin solution) and incubated at 37° C. for 0, 1, 5, 15, 30, and 60 min. (FIG. 4). Degradation was stopped by the addition of SDS-PAGE sample buffer and by boiling for 10 min. Samples containing ^125I-IL-32 and PR-3 incubated at different periods of time (0-60 min.) were resolved on 12% SDS-PAGE under reducing conditions. The gel was dried and autoradiographed. The results summarized on FIG. 4 show the reduction in the 20 kDa band representing intact IL-32 (FIG. 4, lane 1) and the increase in the levels of a 16 and 13 kDa IL-32 cleavage products after a 1-minute incubation with PR-3 (FIG. 4, lane 2).
# Urinary PR-3 or commercial PR-3 (Athens Research and Technology) were incubated with ^125I-IL-32 for 0, 1 and 5 min. Digestion was stopped by the addition of SDS-PAGE sample buffer and by boiling for 10 min. The samples were resolved on SDS-PAGE under reducing conditions. The gel was dried and autoradiographed. […] This difference is probably due to a different specific activity of urinary vs. commercial PR3.
# Raw 264.7 cells = assay: MIP-2 secretion by mouse macrophage Raw 264.7 cells stimulated with IL-32 or PR-3-pretreated IL-32; assay type: cell-based; conditions: IL-32 20 or 200 ng/ml; PR-3 100 ng/ml, 5 min pretreatment; 16-20 h; polymyxin B 5 μg/ml
# Description: Mouse macrophage Raw 264.7 cell line were seeded in a 96 well plate and incubated with IL-32 (20 or 200 ng/ml), IL-32 pretreated with PR-3 (100 ng/ml) for 5 min. or with PR-3 alone as the a control, and MIP-2 secreted into the cell culture medium was measured. […] PR-3 alone had no effect on the cells.
# Mouse macrophage Raw 264.7 cell line (American Type Culture Collection, ATCC) was maintained in RP MI-1640 medium containing 10% FCS. Bioassays were performed in 96 well plates. Briefly, Raw cells (5×10^5/ml, 0.1 ml/per well) were seeded and cultured until cells adhered to the plate. The medium was removed and the cells were then stimulated with fresh medium (without FCS) containing different concentration of IL-32 or IL-32 pre-treated with PR-3 for 5 min at room temperature in the presence 5 μg/ml of the LPS blocker polymyxin B (Bedford Laboratories, Bedford, Ohio). The plates were incubated at 37° C. with 5% CO2 for 16-20 h and then the culture supernatants were collected to measure MIP-2 released by the cell culture.
# [3] = test system: human peripheral blood mononuclear cells (PBMC); assay: IL-8 secretion by human PBMC stimulated with IL-32 or PR-3-pretreated IL-32; assay type: cell-based; conditions: IL-32 20 or 200 ng/ml; PR-3 100 ng/ml, 5 min pretreatment
# Description: Human PBMC cells were seeded in 96 well plates and incubated with IL-32 (20 or 200 ng/ml), IL-32 pretreated with PR-3 (100 ng/ml) for 5 min. or with PR-3 alone as the a control. The content of IL-8 into the cell culture medium was measured.
# Similar enhancement of IL-32 activity by pre-treatment with PR-3 was shown in an experiment carried out with human peripheral blood mononuclear cells (PBMC). PBMC were prepared as previously described [Kim, 2005 #36] and seeded at a concentration of 5×10^5 cells per well in 96 well plates. The experimental setting of stimulation with IL-32 and IL-32 pre treated with PR-3 was identical to that described above for the mouse Raw cells. After stimulation of the human PBMC cells with either IL-32 or IL-32 pre treated with PR-3, the culture supernatants were collected to measure human IL-8 released by the cells.
molecule,measurement,setting,value
"O=c1oc(Cl)c(Cl)c2ccccc12 [3,4-dichloroisocoumarin]",kI for PR-3,PR-3 [1],2600 M⁻¹ s⁻¹
Nc1ccc2c(Cl)c(OCCBr)oc(=O)c2c1 [7-amino-4-chloro-3-(2-bromoethoxy) isocoumarin],kI for PR-3,PR-3 [1],4700 M⁻¹ s⁻¹
"O=S(=O)(F)Cc1ccccc1 [PMSF, phenyl methyl sulfonyl fluoride]",cleavage of IL-32 by urinary and commercial PR-3,PR-3 [2],completely abolished; also recorded: completely blocked
same,enhancement of the biological activity of IL-32 following cleavage by PR-3,IL-32 responsive cells; action of PMSF,blocked
Cc1ccc(C(=O)Nc2ccc(S(=O)(=O)O)c3cc(S(=O)(=O)O)cc(S(=O)(=O)O)c23)cc1NC(=O)c1cccc(NC(=O)Nc2cccc(C(=O)Nc3cc(C(=O)Nc4ccc(S(=O)(=O)O)c5cc(S(=O)(=O)O)cc(S(=O)(=O)O)c45)ccc3C)c2)c1 [Suramin],Ki,"PR-3 [1]; Cadene, 1997",500 nM
"Elafin: a human skin derived peptide that inhibits human leukocyte elastase (AQEPVKGPVSTKPGSCPIILIRCAMLNPPNRCLKDTDCPGIKKCCEGSCGMACFVPQ; ends and bridges not checked; cysteine pairing not given here; UniProt P19957 61-117, looked up)",IC50,"PR-3 [1]; Wiedow, 1991, Zani, 2004",9.5 nM
same,potency compared with antileukoprotease and eglin C,PR-3 [1]; inhibition of PR-3,more than 100 fold
"MCFPKVLSDDMKKLKARMHQAIERFYDKMQNAESGRGQVMSSLAELEDDFKEGYLET (listed as Homo sapiens) [13 kDa (SEQ ID NO: 1), supposed N-terminal fragment of IL-32 generated by PR-3]",biological activity compared to the intact IL-32 protein,IL-32 responsive cells,enhanced biological activity
"urinary PR-3: human Proteinase-3 (28-32 kDa) affinity purified from human urine on an IL-32 column, elution fraction 3 (protein) IVGGHEAQPHSRPYMASLQMRGNPGSHFCGGTLIHPSFVLTAAHCLRDIPQRLVNVVLGAHNVRTQEPTQQHFSVAQVFLNNYDAENKLNDVLLIQLSSPANLSASVATVQLPQQDQPVPHGTQCLAMGWGRVGAHDPPAQVLQELNVTVVTFFCRPHNICTFVPRRKAGICFGDSGGPLICDGIIQGIDSFVIWGCATRLFPDFFTRVALYVDWIRSTLR",incubation time to complete disappearance of the 20 kDa intact IL-32 band,"^125I-IL-32; 37° C., cleaved into 16 and 13 kDa fragments",5 min
"PR-3: granule serine protease, source (urinary or commercial) not stated at these places (protein) AEIVGGHEAQPHSRPYMASLQMRGNPGSHFCGGTLIHPSFVLTAAHCLRDIPQRLVNVVLGAHNVRTQEPTQQHFSVAQVFLNNYDAENKLNDVLLIQLSSPANLSASVATVQLPQQDQPVPHGTQCLAMGWGRVGAHDPPAQVLQELNVTVVTFFCRPHNICTFVPRRKAGICFGDSGGPLICDGIIQGIDSFVIWGCATRLFPDFFTRVALYVDWIRSTLRRVEAKGRP",digestion of IL-32 after overnight incubation with PR-3,"^125I-IL-32; overnight at 4° C., no product higher than the 10 kDa marker",complete digestion
same,MIP-2 secreted into the cell culture medium,Raw 264.7 cells,no effect
same,IL-8 secreted into the cell culture medium,[3],did not induce IL-8
commercial PR-3: commercially available human neutrophil derived PR-3 (Athens Research and Technology) (protein) IVGGHEAQPHSRPYMASLQMRGNPGSHFCGGTLIHPSFVLTAAHCLRDIPQRLVNVVLGAHNVRTQEPTQQHFSVAQVFLNNYDAENKLNDVLLIQLSSPANLSASVATVQLPQQDQPVPHGTQCLAMGWGRVGAHDPPAQVLQELNVTVVTFFCRPHNICTFVPRRKAGICFGDSGGPLICDGIIQGIDSFVIWGCATRLFPDFFTRVALYVDWIRSTLR,"potency of IL-32 cleavage, commercial vs urinary PR-3","^125I-IL-32; incubation 0, 1 and 5 min",more potent than the urinary PR-3; also recorded: more efficient than the urine-derived PR-3
"MNEI: a 42 kDa serpin superfamily member (protein, UniProt P30740 1-379, looked up) Leukocyte elastase inhibitor: MEQLSSANTRFALDLFLALSENNPAGNIFISPFSISSAMAMVFLGTRGNTAAQLSKTFHFNTVEEVHSRFQSLNADINKRGASYILKLANRLYGEKTYNFLPEFLVSTQKTYGADLASVDFQHASEDARKTINQWVKGQTEGKIPELLASGMVDNMTKLVLVNAIYFKGNWKDKFMKEATTNAPFRLNKKDRKTVKMMYQKKKFAYGYIEDLKCRVLELPYQGEELSMVILLPDDIEDESTGLKKIEEQLTLEKLHEWTKPENLDFIEVNVSLPRFKLEESYTLNSDLARLGVQDLFNSSKADLSGMSGARDIFISKIVHKSFVEVNEEGTEAAAATAGIATFCMLMPEENFTADHPFLFFIRHNSSGSILFLGRFSSP",rate of PR-3 inhibition,"PR-3 [1]; Cooley, 2001",> 10^7 M^−1·s^−1
"IL-32: recombinant human IL-32α produced in E. coli, about 20 kDa (protein) MCFPKVLSDDMKKLKARMHQAIERFYDKMQNAESGRGQVMSSLAELEDDFKEGYLETVAAYYEEQHPELTPLLEKERDGLRCRGNRSPVPDVEDPATEEPGESFCDKSYGAPRGDKEELTPQKCSEPQSSK",MIP-2 secreted into the cell culture medium,Raw 264.7 cells,induced the secretion of MIP-2
same,IL-8 secreted into the cell culture medium,[3],induced the secretion of IL-8
"VAAYYEEQHPELTPLLEKERDGLRCRGNRSPVPDVEDPATEEPGESFCDKSYGAPR GDKEELTPQKCSEPQSSK (protein, listed as Homo sapiens, C-terminal fragment of IL-32 generated by PR-3) VAAYYEEQHPELTPLLEKERDGLRCRGNRSPVPDVEDPATEEPGESFCDKSYGAPRGDKEELTPQKCSEPQSSK",biological activity compared to the intact IL-32 protein,IL-32 responsive cells,enhanced biological activity
